Source: publication PMC7305185 (2020)

biological target: eukaryotic translation initiation factor 4E (eIF4E) (UniProt P06730 1-217); experiment: ITC
Sequence (P06730 whole entry): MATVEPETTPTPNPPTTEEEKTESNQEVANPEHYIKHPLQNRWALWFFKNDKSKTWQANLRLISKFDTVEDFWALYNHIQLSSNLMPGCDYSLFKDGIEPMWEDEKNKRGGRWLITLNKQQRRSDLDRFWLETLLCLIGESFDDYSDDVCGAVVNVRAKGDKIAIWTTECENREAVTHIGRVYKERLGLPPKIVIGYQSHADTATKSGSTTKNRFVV

| Binder | Kd [nM] |
| --- | --- |
| Non-phospho 4E-BP2 (protein) MSSSAGSGHQPSQSRAIPTRTVAISDAAQLPHDYCTTPGGTLFSTTPGGTRIIYDRKFLLDRRNSPMAQTPPCHLPNIPGVTSPGTLIEDSKVEVNNLNNLNNHDRKHAVGDDAQFEMDI | 3.2 |
| G39V/G48V Five-phospho 4E-BP2 (protein, phospho-Thr37, phospho-Thr46, phospho-Ser65, phospho-Thr70, phospho-Ser83 (legend prints pT36, taken as a typo for pT37)) MSSSAGSGHQPSQSRAIPTRTVAISDAAQLPHDYCTTPVGTLFSTTPVGTRIIYDRKFLLDRRNSPMAQTPPCHLPNIPGVTSPGTLIEDSKVEVNNLNNLNNHDRKHAVGDDAQFEMDI | 36.1 |
| pT37 pT46 (Two-phospho) 4E-BP2 (protein, phospho-Thr37, phospho-Thr46) MSSSAGSGHQPSQSRAIPTRTVAISDAAQLPHDYCTTPGGTLFSTTPGGTRIIYDRKFLLDRRNAPMAQAPPCHLPNIPGVTAPGTLIEDSKVEVNNLNNLNNHDRKHAVGDDAQFEMDI | 267 |
| pT46 4E-BP2 (protein, phospho-Thr46) MSSSAGSGHQPSQSRAIPTRTVAISDAAQLPHDYCTAPGGTLFSTTPGGTRIIYDRKFLLDRRNAPMAQAPPCHLPNIPGVTAPGTLIEDSKVEVNNLNNLNNHDRKHAVGDDAQFEMDI | 2.4 |

Continued by falling Kd, values first:

| Kd [nM] | Binder |
| --- | --- |
| 11.3 | pS65 pT70 pS83 (T37A/T46A) 4E-BP2 (protein, phospho-Ser65, phospho-Thr70, phospho-Ser83) MSSSAGSGHQPSQSRAIPTRTVAISDAAQLPHDYCTAPGGTLFSTAPGGTRIIYDRKFLLDRRNSPMAQTPPCHLPNIPGVTSPGTLIEDSKVEVNNLNNLNNHDRKHAVGDDAQFEMDI |
| 7.2 | pT37 4E-BP2 (protein, phospho-Thr37) MSSSAGSGHQPSQSRAIPTRTVAISDAAQLPHDYCTTPGGTLFSTAPGGTRIIYDRKFLLDRRNAPMAQAPPCHLPNIPGVTAPGTLIEDSKVEVNNLNNLNNHDRKHAVGDDAQFEMDI |
